The target in one experiment is rat GLP-1-R (rat) (UniProt P32301). Nature of the experiment: cell-based or functional assay.
Experiment [1] concerns the target human Gcg receptor (human) (UniProt P47871). Briefly: cell-based or functional assay.

Sequence of Wild type human OXM (ligand) (peptide): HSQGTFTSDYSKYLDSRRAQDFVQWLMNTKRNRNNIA
Sequence of human Gcg receptor (human) (P47871 26-477): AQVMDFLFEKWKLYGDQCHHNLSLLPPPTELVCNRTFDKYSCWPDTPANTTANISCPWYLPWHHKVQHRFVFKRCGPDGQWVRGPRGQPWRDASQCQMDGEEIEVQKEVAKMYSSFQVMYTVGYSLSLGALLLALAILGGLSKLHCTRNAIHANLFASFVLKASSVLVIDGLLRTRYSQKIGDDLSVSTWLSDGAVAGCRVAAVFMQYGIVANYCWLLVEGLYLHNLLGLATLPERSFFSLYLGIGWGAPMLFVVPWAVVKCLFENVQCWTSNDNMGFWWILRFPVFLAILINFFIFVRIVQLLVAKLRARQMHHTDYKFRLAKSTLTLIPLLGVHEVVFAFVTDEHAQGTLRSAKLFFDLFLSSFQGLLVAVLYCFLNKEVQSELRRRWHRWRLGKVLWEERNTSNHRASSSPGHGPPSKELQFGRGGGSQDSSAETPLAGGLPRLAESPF

Semaglutide (peptide) registered an Emax (%), cAMP production in INS1 832-3 cells in the experiment with rat GLP-1-R (rat) of 107%.
In turn, Wild type human OXM (ligand) had an Emax (%), cAMP production in primary human hepatocytes in experiment [1] of 90%.

For the origin of these results see patent US20160368960A1.
